Assay [1] deals with T1, human C5aR1 (complement component 5a receptor 1) (human, UniProt P21730 1-350, sulfated tyrosines at positions 11 and 14).
T1 construct: on Expi293 cells, C5aR1-U937 cells or human neutrophils in flow cytometry; also called CD88; C5a anaphylatoxin chemotactic receptor 1
T1 chain: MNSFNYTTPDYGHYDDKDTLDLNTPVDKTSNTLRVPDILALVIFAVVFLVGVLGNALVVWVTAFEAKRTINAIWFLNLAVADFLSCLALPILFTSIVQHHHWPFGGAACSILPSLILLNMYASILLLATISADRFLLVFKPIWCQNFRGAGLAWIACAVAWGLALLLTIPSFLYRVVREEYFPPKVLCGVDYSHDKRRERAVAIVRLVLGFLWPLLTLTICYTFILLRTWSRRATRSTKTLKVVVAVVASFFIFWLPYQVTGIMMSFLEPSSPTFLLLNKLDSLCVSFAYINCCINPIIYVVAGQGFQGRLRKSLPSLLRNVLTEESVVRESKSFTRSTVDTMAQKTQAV
Put plainly: flow cytometry on human neutrophils, titration 10^-7.5 to 10^-12 M. As to the method:
Exemplary anti-C5aR1 antibodies generated as described in Example 1 were tested for binding to human neutrophils. Briefly, cryopreserved human neutrophils were obtained from Asarte Biologics.
In general terms: A flow cytometer gives signals particle by particle.

The target of assay [2] is T2, biotinylated cyclic ECL2 peptide of C5aR1 (human, also: biotinylated, position not given here, cyclic, way of cyclisation not given here).
T2 peptide: RVVREEYFPPKVLC
Put plainly: BLI, peptide on streptavidin sensor. The text has this: The epitope mapping was undertaken, using biolayer interferometry, on a series of exemplary anti-C5aR1 antibodies generated as described in Example 1. Briefly, for each antibody, biotinylated peptides representing ECL2, the N-terminus with tyrosine sulfation, and the N-terminus without tyrosine sulfation, were immobilized in a streptavidin biosensor. Subsequently, the biosensor was exposed to […] of antibody to detect antibody binding to the immobilized peptide. The results of the epitope mapping study are shown in Table 4 (“+” indicates binding to the listed peptide; “−” indicates lack of binding to the listed peptide).
On the technique in general: In BLI a coated tip is dipped into the sample, and binding shifts an interference pattern.

No end group written: not given here.

B1: antibody 332 (antibody, V domains shown)
VH: QVQLQQSDAELVKPGASVKISCKASGYTFTDHSIHWVKQRPEQGLEWIGYISPGNGDIKYDEKFKGKATLTADTSSSTAYMQLNSLTSEDSAVYFCKGPLLLRWRYFYPVDYWGQGTTVTVSS
VL: DIVMTQSQKFMSSAVGDRVTITCKASQNVGAAVAWYQQKPGQSPKLLLYSASIRYTGVPDRFTGSGSGTDFTLTISNIQSEDLAHFFCQQYNSFPLTFGGGTKLEIK
For the molecule B1, the figures for the binding result in assay [1] and in assay [2] were “binds” and “no binding (tested: 10 gg/mL (so in the source))”, respectively.

B2: antibody 335 (antibody, V domains shown)
VH: QVQLQQSDAALVKPGASVKISCKASGYTFTDHAIHWVKQRPEQGLEWIGYISPGNGDIKYNEKFKGKATLTADKSSSTAYMQLNSLTSEDSAVYFCKGPLLVRWRYYITMDYWGQGTTVTVSS
VL: DIVMTQSQKFMSTTVGDRVSITCKASQNVGAAVVWYQQKPGQSPKLLIYSASYRYTGVPDRFTGSGSGTDFTLTISNMQSEDVADYFCQQYNSFPLTFGGGTKLEIK
For B2, the binding result in assay [1] is recorded as “binds”; in assay [2], “no binding (tested: 10 gg/mL (so in the source))”.

The values above are taken from patent US20240076398A1 (VISTERRA, published 2024).
